We go through 12 molecules from paper PMC11098746 (2024).

No end group written: not given here.

B1: ADP138 (protein)
chain: MAGKSSTRAVLLLLGIQLTALWPIAAVEIYTSRVLEAVNGTDARLKCTFSSFAPVGDALTVTWNFRPLDGGPEQFVFYYHIDPFQPMSGRFKDRVSWDGNPERYDASILLWKLQFDDNGTYTCQVKNPPDVDGVIGEIRLSVVHTVRFS
modifications: bait human Fc-tagged dimer
B2: ADP262 (protein)
chain: QNSQLQEELRGLRETFSNFTASTEAQVKGLSTQGGNVGRKMKSLESQLEKQQKDLSEDHSSLLLHVKQFVSDLRSLSCQMAALQGNGSERTCCPVNWVEHERSCYWFSRSGKAWADADNYCRLEDAHLVVVTSWEEQKFVQHHIGPVNTWMGLHDQNGPWKWVDGTDYETGFKNWRPEQPDDWYGHGLGGGEDCAHFTDDGRWNDDVCQRPYRWVCETELDKASQEPPLL
modifications: bait human Fc-tagged dimer
B3: ADP279 (protein)
chain: RMAHKFITGKLVEDERSDREETESSEGEEAAAGGGAKSRPLANGHPILNNNHRKND
modifications: also: human Fc-tagged dimer
B4: ADP358 (protein)
chain: MARSPGRAYALLLLLICFNVGSGLHLQVLSTRNENKLLPKHPHLVRQKRAWITAPVALREGEDLSKKNPIAKIHSDLAEERGLKITYKYTGKGITEPPFGIFVFNKDTGELNVTSILDREETPFFLLTGYALDARGNNVEKPLELRIKVLDINDNEPVFTQDVFVGSVEELSAAHTLVMKINATDADEPNTLNSKISYRIVSLEPAYPPVFYLNKDTGEIYTTSVTLDREEHSSYTLTVEARDGNGEVTDKPVKQAQVQIRILDVNDNIPVVENKVLEGMVEENQVNVEVTRIKVFDADEIGSDNWLANFTFASGNEGGYFHIETDAQTNEGIVTLIKEVDYEEMKNLDFSVIVANKAAFHKSIRSKYKPTPIPIKVKVKNVKEGIHFKSSVISIYVSESMDRSSKGQIIGNFQAFDEDTGLPAHARYVKLEDRDNWISVDSVTSEIKLAKLPDFESRYVQNGTYTVKIVAISEDYPRKTITGTVLINVEDINDNCPTLIEPVQTICHDAEYVNVTAEDLDGHPNSGPFSFSVIDKPPGMAEKWKIARQESTSVLLQQSEKKLGRSEIQFLISDNQGFSCPEKQVLTLTVCECLHGSGCREAQHDSYVGLGP
modifications: bait human Fc-tagged dimer
B5: ADP343 (protein)
chain: MALASAAPGSIFCKQLLFSLLVLTLLCDACQKVYLRVPSHLQAETLVGKVNLEECLKSASLIRSSDPAFRILEDGSIYTTHDLILSSERKSFSIFLSDGQRREQQEIKVVLSARENKSPKKRHTKDTALKRSKRRWAPIPASLMENSLGPFPQHVQQIQSDAAQNYTIFYSISGPGVDKEPFNLFYIEKDTGDIFCTRSIDREKYEQFALYGYATTADGYAPEYPLPLIIKIEDDNDNAPYFEHRVTIFTVPENCRSGTSVGKVTATDLDEPDTLHTRLKYKILQQIPDHPKHFSIHPDTGVITTTTPFLDREKCDTYQLIMEVRDMGGQPFGLFNTGTITISLEDENDNPPSFTETSYVTEVEENRIDVEILRMKVQDQDLPNTPHSKAVYKILQGNENGNFIISTDPNTNEGVLCVVKPLNYEVNRQVILQVGVINEAQFSKAASSQTPTMCTTTVTVKIIDSDEGPECHPPVKVIQSQDGFPAGQELLGYKALDPEISSGEGLRYQKLGDEDNWFEINQHTGDLRTLKVLDRESKFVKNNQYNISVVAVDAVGRSCTGTLVVHLDDYNDHAPQIDKEVTICQNNEDFAVLKPVDPDGPENGPPFQFFLDNSASKNWNIEEKDGKTAILRQRQNLDYNYYSVPIQIKDRHGLVATHMLTVRVCDCSTPSECRMKDKSTRDVRPNVILG
modifications: bait human Fc-tagged dimer
B6: ADP341 (protein)
chain: MEAAVAAPRPRLLLLVLAAAAAAAAALLPGATALQCFCHLCTKDNFTCVTDGLCFVSVTETTDKVIHNSMCIAEIDLIPRDRPFVCAPSSKTGSVTTTYCCNQDHCNKIELPTTVKSSPGLGP
modifications: bait human Fc-tagged dimer
B7: ADP374 (protein)
chain: MKETLYDEVLAKQKREQKLIPTKTDKKKAEKKKNKKKEIQNGNLHESDSESVPRDFKLSDALAVEDDQVAPVPLNVVETSSSVRERKKKEKKQKPVLEEQVIKESDASKIPGKKVEPVPVTKQPTPPSEAAASKKKPGQKKSKNGSDDQDKKVETLMVPSKRQEALPLHQETKQESGSGKKKASSKKQKTENVFVDEPLIHATTYIPLMDNADSSPVVDKREVIDLLKPDQVEGIQKSGTKKLKTETDKENAEVKFKDFLLSLKTMMFSEDEALCVVDLLKEKSGVIQDALKKSSKGELTTLIHQLQEKDKLLAAVKEDAAATKDRCKQLTQEMMTEKERSNVVITRMKDRIGTLEKEHNVFQNKIHVSYQETQQMQMKFQQVREQMEAEIAHLKQENGILRDAVSNTTNQLESKQSAELNKLRQDYARLVNELTEKTGKLQQEEVQKKNAEQAATQLKVQLQEAERRWEEVQSYIRKRTAEHEAAQQDLQSKFVAKENEVQSLHSKLTDTLVSKQQLEQRLMQLMESEQKRVNKEESLQMQVQDILEQNEALKAQIQQFHSQIAAQTSASVLAEELHKVIAEKDKQIKQTEDSLASERDRLTSKEEELKDIQNMNFLLKAEVQKLQALANEQAAAAHELEKMQQSVYVKDDKIRLLEEQLQHEISNKMEEFKILNDQNKALKSEVQKLQTLVSEQPNKDVVEQMEKCIQEKDEKLKTVEELLETGLIQVATKEEELNAIRTENSSLTKEVQDLKAKQNDQVSFASLVEELKKVIHEKDGKIKSVEELLEAELLKVANKEKTVQDLKQEIKALKEEIGNVQLEKAQQLSITSKVQELQNLLKGKEEQMNTMKAVLEEKEKDLANTGKWLQDLQEENESLKAHVQEVAQHNLKEASSASQFEELEIVLKEKENELKRLEAMLKERESDLSSKTQLLQDVQDENKLFKSQIEQLKQQNYQQASSFPPHEELLKVISEREKEISGLWNELDSLKDAVEHQRKKNNDLREKNWEAMEALASTEKMLQDKVNKTSKERQQQVEAVELEAKEVLKKLFPKVSVPSNLSYGEWLHGFEKKAKECMAGTSGSEEVKVLEHKLKEADEMHTLLQLECEKYKSVLAETEGILQKLQRSVEQEENKWKVKVDESHKTIKQMQSSFTSSEQELERLRSENKDIENLRREREHLEMELEKAEMERSTYVTEVRELKDLLTELQKKLDDSYSEAVRQNEELNLLKAQLNETLTKLRTEQNERQKVAGDLHKAQQSLELIQSKIVKAAGDTTVIENSDVSPETESSEKETMSVSLNQTVTQLQQLLQAVNQQLTKEKEHYQVLE
modifications: bait human Fc-tagged dimer
B8: ADP354 (protein)
chain: MGPWSRSLSALLLLLQVSSWLCQEPEPCHPGFDAESYTFTVPRRHLERGRVLGRVNFEDCTGRQRTAYFSLDTRFKVGTDGVITVKRPLRFHNPQIHFLVYAWDSTYRKFSTKVTLNTVGHHHRPPPHQASVSGIQAELLTFPNSSPGLRRQKRDWVIPPISCPENEKGPFPKNLVQIKSNKDKEGKVFYSITGQGADTPPVGVFIIERETGWLKVTEPLDRERIATYTLFSHAVSSNGNAVEDPMEILITVTDQNDNKPEFTQEVFKGSVMEGALPGTSVMEVTATDADDDVNTYNAAIAYTILSQDPELPDKNMFTINRNTGVISVVTTGLDRESFPTYTLVVQAADLQGEGLSTTATAVITVTDTNDNPPIFNPTTYKGQVPENEANVVITTLKVTDADAPNTPAWEAVYTILNDDGGQFVVTTNPVNNDGILKTAKGLDFEAKQQYILHVAVTNVVPFEVSLTTSTATVTVDVLDVNEAPIFVPPEKRVEVSEDFGVGQEITSYTAQEPDTFMEQKITYRIWRDTANWLEINPDTGAISTRAELDREDFEHVKNSTYTALIIATDNGSPVATGTGTLLLILSDVNDNAPIPEPRTIFFCERNPKPQVINIIDADLPPNTSPFTAELTHGASANWTIQYNDPTQESIILKPKMALEVGDYKINLKLMDNQNKDQVTTLEVSVCDCEGAAGVCRKAQPVEAGLQIP
modifications: bait human Fc-tagged dimer
B9: ADP120 (protein)
chain: MAGVGAGPLRAMGRQALLLLALCATGAQGLYFHIGETEKRCFIEEIPDETMVIGNYRTQMWDKQKEVFLPSTPGLGMHVEVKDPDGKVVLSRQYGSEGRFTFTSHTPGDHQICLHSNSTRMALFAGGKLRVHLDIQVGEHANNYPEIAAKDKLTELQLRARQLLDQVEQIQKEQDYQRYREERFRLTSESTNQR
modifications: bait human Fc-tagged dimer
B10: ADP136 (protein)
chain: MVRIAGALRTLLPLLAALLQASVEASGEIALCKTGFPEDVYSAVLSKDVHEGQPLLNVKFSNCNGKRKVQYESSEPADFKVDEDGMVYAVRSFPLSSEHAKFLIYAQDKETQEKWQVAVKLSLKPTLTEESVKESAEVEEIVFPRQFSKHSGHLQRQKRDWVIPPINLPENSRGPFPQELVRIRSDRDKNLSLRYSVTGPGADQPPTGIFIINPISGQLSVTKPLDREQIARFHLRAHAVDINGNQVENPIDIVINVIDMNDNRPEFLHQVWNGTVPEGSKPGTYVMTVTAIDADDPNALNGMLRYRIVSQAPSTPSPNMFTINNETGDIITVAAGLDREKVQQYTLIIQATDMEGNPTYGLSNTATAVITVTDVNDNPPEFTAMTFYGEVPENRVDIIVANLTVTDKDQPHTPAWNAVYRISGGDPTGRFAIQTDPNSNDGLVTVVKPIDFETNRMFVLTVAAENQVPLAKGIQHPPQSTATVSVTVIDVNENPYFAPNPKIIRQEEGLHAGTMLTTFTAQDPDRYMQQNIRYTKLSDPANWLKIDPVNGQITTIAVLDRESPNVKNNIYNATFLASDNGIPPMSGTGTLQIYLLDINDNAPQVLPQEAETCETPDPNSINITALDYDIDPNAGPFAFDLPLSPVTIKRNWTITRLNGDFAQLNLKIKFLEAGIYEVPIIITDSGNPPKSNISILRVKVCQCDSNGDCTDVDRIVGAGLGT
modifications: bait human Fc-tagged dimer
B11: ADP352 (protein)
chain: MGHLSAPLHRVRVPWQGLLLTASLLTFWNPPTTAQLTTESMPFNVAEGKEVLLLVHNLPQQLFGYSWYKGERVDGNRQIVGYAIGTQQATPGPANSGRETIYPNASLLIQNVTQNDTGFYTLQVIKSDLVNEEATGQFHVYPELPKPSISSNNSNPVEDKDAVAFTCEPETQDTTYLWWINNQSLPVSPRLQLSNGNRTLTLLSVTRNDTGPYECEIQNPVSANRSDPVTLNVTYGPDTPTISPSDTYYRPGANLSLSCYAASNPPAQYSWLINGTFQQSTQELFIPNITVNNSGSYTCHANNSVTGCNRTTVKTIIVTELSPVVAKPQIKASKTTVTGDKDSVNLTCSTNDTGISIRWFFKNQSLPSSERMKLSQGNTTLSINPVKREDAGTYWCEVFNPISKNQSDPIMLNVNYNALPQENGLSPG
modifications: bait human Fc-tagged dimer
B12: ADP296 (protein)
chain: MARERGALSRASRALRLAPFVYLLLIQTDPLEGVNITSPVRLIHGTVGKSALLSVQYSSTSSDRPVVKWQLKRDKPVTVVQSIGTEVIGTLRPDYRDRIRLFENGSLLLSDLQLADEGTYEVEISITDDTFTGEKTINLTVDVPISRPQVLVASTTVLELSEAFTLNCSHENGTKPSYTWLKDGKPLLNDSRMLLSPDQKVLTITRVLMEDDDLYSCMVENPISQGRSLPVKITVYRRSS
modifications: bait human Fc-tagged dimer

In this experiment the target is Circumsporozoite protein (CSP) (Plasmodium falciparum (isolate 3D7), UniProt Q7K740). Kind of experiment: AVEXIS screen signal:noise (double-corrected).
Sequence of Circumsporozoite protein (CSP) (Q7K740 19-374): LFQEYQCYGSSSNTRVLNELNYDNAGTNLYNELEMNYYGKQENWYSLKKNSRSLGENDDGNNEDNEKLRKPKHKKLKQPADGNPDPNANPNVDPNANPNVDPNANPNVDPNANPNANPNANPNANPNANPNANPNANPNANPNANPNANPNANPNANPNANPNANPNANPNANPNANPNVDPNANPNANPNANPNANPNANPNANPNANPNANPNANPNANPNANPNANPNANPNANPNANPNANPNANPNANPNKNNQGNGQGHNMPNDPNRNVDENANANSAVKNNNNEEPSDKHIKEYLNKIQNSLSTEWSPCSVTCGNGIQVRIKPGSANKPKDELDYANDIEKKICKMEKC
On to B1, for which the binding score worked out at 0.831.
The figure for B2 is 0.921; for B3 it is 1.03.
As for B4, the binding score came out at 1.38.
In the case of B5 it was 0.814; in that of B6, 1.43.
B7 had a binding score of 0.547.
In the case of B8 it was 0.796; in that of B9, 0.957.
On to B10, for which the binding score was found to be 1.73.
In the case of B11 it was 1.31.
The figure for B12 is 0.997.
